In patent publication US20120184488A1, “INSULIN ANALOGUES OF ENHANCED RECEPTOR-BINDING SPECIFICITY” (CASE WESTERN RESERVE UNIVERSITY, priority 2009, published 2012):

Assays:
[1] = molecular target: insulin receptor, isoform B (human) (UniProt P06213); assay: competitive displacement, antibody-capture microtiter plate, IR isoform B
IR = IR (Homo sapiens, UniProt P06213); settings: relative to human insulin; cited from earlier work
[2] = molecular target: insulin receptor, isoform B (human) (UniProt P06213); assay: competitive displacement of 125I-insulin, antibody-capture microtiter plate, IR isoform B
[3] = molecular target: Type I insulin-like growth factor receptor (UniProt P08069); assay: competitive displacement of 125I-IGF-1, antibody-capture microtiter plate, IGFR

His^A4-His^A8-His^B1-insulin (ligand), sequence (chain): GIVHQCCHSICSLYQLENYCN
His^A4-His^A8-His^B1-insulin (ligand), sequence (chain): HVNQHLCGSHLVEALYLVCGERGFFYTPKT
Ala^A4-His^A8-DKP-insulin (ligand), sequence (chain): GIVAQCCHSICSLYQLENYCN
Ala^A4-His^A8-DKP-insulin (ligand), sequence (chain): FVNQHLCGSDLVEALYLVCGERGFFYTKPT

In the case of Ala^A4-His^A8-DKP-insulin (ligand), the relative affinity for IR (percent of human insulin) [1] was 384%.
For insulin Detemir®, the “affinity for IR / receptor binding” value (IR) is listed as “decreased affinity”.
Work on His^A4-His^A8-His^B1-insulin (ligand) yielded a relative affinity for IR (percent of human insulin) [1] of 125%.
For Dab^A8-insulin (ligand), the relative affinity for IR (percent of human insulin) [2] was 91% and the relative affinity for IGFR (percent of IGF-I) [3] was 0.13%.
